# Patent US5543312
# Molecular target: glycophorin A from human erythrocytes (human) (UniProt P02724)
# Pasteurella haemolytica A1 glycoprotease (enzyme from culture supernatant), sequence (P36175 whole entry): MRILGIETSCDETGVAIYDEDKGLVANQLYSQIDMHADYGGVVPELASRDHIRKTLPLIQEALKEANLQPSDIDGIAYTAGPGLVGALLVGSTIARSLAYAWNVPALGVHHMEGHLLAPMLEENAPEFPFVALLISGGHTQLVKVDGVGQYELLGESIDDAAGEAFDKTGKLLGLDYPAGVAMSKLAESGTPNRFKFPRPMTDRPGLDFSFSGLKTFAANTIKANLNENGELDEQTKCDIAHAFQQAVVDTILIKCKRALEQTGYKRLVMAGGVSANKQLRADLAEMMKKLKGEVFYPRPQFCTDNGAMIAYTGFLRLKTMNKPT
substance,measurement,value
Pasteurella haemolytica A1 glycoprotease (enzyme from culture supernatant),"Glycoprotease Specific Activity (nmol/mg/h), cleavage of [125I]-glycophorin A",94 nmol/mg/h
